From patent US20150344570A1 (published 2015)

T1: FcgRIIb (human, UniProt P31994 43-217)
T1 construct: extracellular domain; also called FcγRIIb; CD32B; not shown: His tag attached to the C terminus
T1 sequence (looked up): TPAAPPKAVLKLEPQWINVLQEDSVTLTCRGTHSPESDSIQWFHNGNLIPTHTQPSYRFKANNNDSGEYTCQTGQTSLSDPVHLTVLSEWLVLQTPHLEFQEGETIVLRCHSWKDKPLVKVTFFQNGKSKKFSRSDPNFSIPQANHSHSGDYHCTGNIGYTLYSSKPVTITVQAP

T2: FcgRIIaR (human, UniProt P12318 34-217)
T2 construct: extracellular domain; Allotype R131; also called FcγRIIa R; FcgRIIa type R; not shown: His tag attached to the C terminus
T2 sequence (looked up): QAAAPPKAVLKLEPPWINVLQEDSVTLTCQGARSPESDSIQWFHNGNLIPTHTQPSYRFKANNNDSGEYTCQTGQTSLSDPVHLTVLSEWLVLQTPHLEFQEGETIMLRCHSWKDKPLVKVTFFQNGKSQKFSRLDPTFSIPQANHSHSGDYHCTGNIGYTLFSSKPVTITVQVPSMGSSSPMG

T3: FcgRIIaH (human, UniProt P12318 34-217)
T3 construct: extracellular domain; Allotype H131; also called FcγRIIa H; FcgRIIa type H; not shown: His tag attached to the C terminus
T3 sequence (looked up): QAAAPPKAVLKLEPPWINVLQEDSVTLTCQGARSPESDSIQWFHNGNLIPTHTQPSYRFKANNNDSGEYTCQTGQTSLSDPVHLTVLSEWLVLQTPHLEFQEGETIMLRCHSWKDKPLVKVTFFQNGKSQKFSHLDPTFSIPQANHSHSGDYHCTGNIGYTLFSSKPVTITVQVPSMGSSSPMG


Key:
Assay in all cases: SPR (Biacore); KD of H240-Kn120/H240-Hl068/L73-k0 divided by KD of the sample
FcgRIIb = biological target: T1, FcgRIIb
FcgRIIaR = biological target: T2, FcgRIIaR
FcgRIIIaF = biological target: T4, FcgRIIIaF (human, UniProt P08637 17-208)
T4 construct: extracellular domain; Allotype F158; also called FcγRIIIa F; not shown: His tag attached to the C terminus
T4 sequence (P08637 17-208): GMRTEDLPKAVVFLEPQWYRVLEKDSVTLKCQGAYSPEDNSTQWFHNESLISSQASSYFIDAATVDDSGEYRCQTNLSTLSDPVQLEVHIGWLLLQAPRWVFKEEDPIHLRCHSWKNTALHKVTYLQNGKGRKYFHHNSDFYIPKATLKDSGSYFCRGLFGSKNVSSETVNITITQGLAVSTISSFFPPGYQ

FcgRIIaH = biological target: T3, FcgRIIaH
FcgRIIIaV = biological target: T5, FcgRIIIaV (human, UniProt P08637 17-208)
T5 construct: extracellular domain; Allotype V158; also called FcγRIIIa V; not shown: His tag attached to the C terminus
T5 sequence (P08637 17-208 F176V limits assumed): as the sequence (P08637 17-208) above, with F160V counted along it

FcgRIa = biological target: T6, FcgRIa (human, UniProt P12314 16-292)
T6 construct: extracellular domain; Soluble extracellular domain expressed in FreeStyle293 cells; also called FcγRIa; FcγRI; not shown: His tag attached to the C terminus
T6 sequence (P12314 16-292): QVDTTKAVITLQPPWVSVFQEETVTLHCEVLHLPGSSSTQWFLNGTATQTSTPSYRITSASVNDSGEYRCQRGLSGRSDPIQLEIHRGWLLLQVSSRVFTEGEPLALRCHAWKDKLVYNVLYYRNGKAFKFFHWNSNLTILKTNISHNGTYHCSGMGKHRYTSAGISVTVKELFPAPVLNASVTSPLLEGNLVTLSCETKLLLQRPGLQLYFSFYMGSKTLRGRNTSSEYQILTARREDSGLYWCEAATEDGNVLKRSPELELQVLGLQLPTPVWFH

relative KD (FcgRIIb)	relative KD (FcgRIIaR)	relative KD (FcgRIIIaF)	relative KD (FcgRIIaH)	relative KD (FcgRIIIaV)	relative KD (FcgRIa)	Binder
1.4	1.8	0.1	0.3	0	0.5	H240-Kn138/H240-Hl147/L73-k0 (antibody, human IgG1, kappa, Heterodimerized anti-epiregulin IgG1 antibody; L328W in both H chains) heavy 1: QDQLVQSGAEVKKPGASVKVSCKASGFNIKDTYIQWVRQAPGQGLEWMGRIDPLRKQTKYREKFEGRVTITADTSTNTAYMELSSLRSEDTAVYYCVRSGREFDYWGQGTLVTVSSASTKGPSVFPLAPSSKSTSGGTAALGCLVKDYFPEPVTVSWNSGALTSGVHTFPAVLQSSGLYSLSSVVTVPSSSLGTQTYICNVNHKPSNTKVDKKVEPKSCDKTHTCPPCPAPEYYWGPMVFLFPPKPKDTLMISRTPEVTCVVVDVSDEDPEVKFNWYVDGVEVHNAKTKPREEQYNATYRVVSVLTVLHQDWLNGKEYKCKVSNKDWPAPIEKTISKAKGQPREPQVCTLPPSRDELTKNQVSLWCLVKGFYPSDIAVEWESNGQPENNYKTTPPVLDSDGSFFLYSKLTVDKSRWQQGNVFSCSVMHEALHNHYTQKSLSLSP heavy 2: QDQLVQSGAEVKKPGASVKVSCKASGFNIKDTYIQWVRQAPGQGLEWMGRIDPLRKQTKYREKFEGRVTITADTSTNTAYMELSSLRSEDTAVYYCVRSGREFDYWGQGTLVTVSSASTKGPSVFPLAPSSKSTSGGTAALGCLVKDYFPEPVTVSWNSGALTSGVHTFPAVLQSSGLYSLSSVVTVPSSSLGTQTYICNVNHKPSNTKVDKKVEPKSCDKTHTCPPCPAPELLGGPSVFLFPPKPKDTLMISRTPEVTCVVVDVSHEEPEVKFNWYVDGVEVHNAKTKPREEQYNSTYRVVSVLTVLHQDWLNGKEYKCKVSNDAWPKPIEETISKAKGQPREPQVYTLPPSRCELTKNQVSLSCAVKGFYPSDIAVEWESNGQPENNYKTTPPVLDSDGSFFLVSKLTVDKSRWQQGNVFSCSVMHEALHNHYTQKSLSLSP light: DIQMTQSPSSLSASVGDRVTITCRASQDIHKYIAWYQQKPGQAPRLLIQYTSTLQPGVPSRFSGSGSGTDYTFTISSLQPEDIATYYCLQYEQLRTFGGGTKVEIKRTVAAPSVFIFPPSDEQLKSGTASVVCLLNNFYPREAKVQWKVDNALQSGNSQESVTEQDSKDSTYSLSSTLTLSKADYEKHKVYACEVTHQGLSSPVTKSFNRGEC
0.8	0.6	0.5	1.9	0.4	2.4	H240-Kn166/H240-Hl170/L73-k0 (antibody, human IgG1, kappa, Heterodimerized anti-epiregulin IgG1 antibody; L328A in both H chains) heavy 1: QDQLVQSGAEVKKPGASVKVSCKASGFNIKDTYIQWVRQAPGQGLEWMGRIDPLRKQTKYREKFEGRVTITADTSTNTAYMELSSLRSEDTAVYYCVRSGREFDYWGQGTLVTVSSASTKGPSVFPLAPSSKSTSGGTAALGCLVKDYFPEPVTVSWNSGALTSGVHTFPAVLQSSGLYSLSSVVTVPSSSLGTQTYICNVNHKPSNTKVDKKVEPKSCDKTHTCPPCPAPEYYWGPMVFLFPPKPKDTLMISRTPEVTCVVVDVSDEDPEVKFNWYVDGVEVHNAKTKPREEQYNATYRVVSVLTVLHQDWLNGKEYKCKVSNKDAPAPIEKTISKAKGQPREPQVCTLPPSRDELTKNQVSLWCLVKGFYPSDIAVEWESNGQPENNYKTTPPVLDSDGSFFLYSKLTVDKSRWQQGNVFSCSVMHEALHNHYTQKSLSLSP heavy 2: QDQLVQSGAEVKKPGASVKVSCKASGFNIKDTYIQWVRQAPGQGLEWMGRIDPLRKQTKYREKFEGRVTITADTSTNTAYMELSSLRSEDTAVYYCVRSGREFDYWGQGTLVTVSSASTKGPSVFPLAPSSKSTSGGTAALGCLVKDYFPEPVTVSWNSGALTSGVHTFPAVLQSSGLYSLSSVVTVPSSSLGTQTYICNVNHKPSNTKVDKKVEPKSCDKTHTCPPCPAPELLGGPSVFLFPPKPKDTLMISRTPEVTCVVVDVSHEEPEVKFNWYVDGVEVHNAKTKPREEQYNSTYRVVSVLTVLHQDWLNGKEYKCKVSNDAAPKPIEETISKAKGQPREPQVYTLPPSRCELTKNQVSLSCAVKGFYPSDIAVEWESNGQPENNYKTTPPVLDSDGSFFLVSKLTVDKSRWQQGNVFSCSVMHEALHNHYTQKSLSLSP light: DIQMTQSPSSLSASVGDRVTITCRASQDIHKYIAWYQQKPGQAPRLLIQYTSTLQPGVPSRFSGSGSGTDYTFTISSLQPEDIATYYCLQYEQLRTFGGGTKVEIKRTVAAPSVFIFPPSDEQLKSGTASVVCLLNNFYPREAKVQWKVDNALQSGNSQESVTEQDSKDSTYSLSSTLTLSKADYEKHKVYACEVTHQGLSSPVTKSFNRGEC
